From PMC10967448, “ApoE Mimetic Peptide COG1410 Kills Mycobacterium smegmatis via Directly Interfering ClpC’s ATPase Activity” (Antibiotics, 2024)
Square brackets hold non-standard residues; d marks the D form. Ends that are not written are not given here. Aib = CC(C)(N)C(=O)O

Columns and labels:
[1] = biological target: T1, ClpC (M. smegmatis AAA+ unfoldase, Clp-ATPase) (M. smegmatis); assay: cell-based or functional assay
ClpC (S437P) [2] = biological target: ClpC (S437P) (M. smegmatis); assay: cell-based or functional assay
[3] = biological target: T1, ClpC (M. smegmatis AAA+ unfoldase, …); assay: SPR; Biacore 8K; ClpC or ClpC (S437P) amine-coupled on a CM5 chip at pH 4.0 (around 6500 RU); COG1410 flowed at 125 to 2000 nM (2-fold dilutions); PBS pH 7.4, 0.05% tween-20, 25 °C, 30 μL/min; 1:1 Langmuir binding model; settings: both partners purified
ClpC (S437P) [4] = biological target: T2, ClpC (S437P) (M. smegmatis); assay: as above; settings: both partners purified
T2 construct: also called ClpC variant; ClpC (S437P) variant; source: E. coli BL21 (DE3), pET28a, purified (IMAC on Ni Sepharose 6 FF, desalting)

B1: COG1410 (peptide)
chain: AS[Aib]LRKL[Aib]KRLL
modifications: not fully specified (N-terminus, C-terminus)
With B1 the “ATPase activity of purified ClpC (64 nM) with COG1410, dose series; at 10 μM COG1410 against ClpC alone” value [1] was roughly 3 fold, the “proteolytic activity on FITC-casein in the ClpCP1P2 system with 10 μM COG1410” value [1] was 4 fold and the “ATPase activity of purified ClpC (S437P) (64 nM) with 10 μM COG1410 against ClpC alone” value (ClpC (S437P) [2]) was roughly 7.4 fold. The “proteolytic activity on FITC-casein in the S437PP1P2 system with COG1410 against the control with ClpC alone” value (ClpC (S437P) [2]) was roughly 7 fold, the Kd [3] was 2030 nM and the koff [3] was 0.0117 s⁻¹. The kon [3] was 5780 M⁻¹ s⁻¹, the Kd (ClpC (S437P) [4]) was 1310 nM and the koff (ClpC (S437P) [4]) was 0.0119 s⁻¹. The kon (ClpC (S437P) [4]) was 9900 M⁻¹ s⁻¹.
